US20260055195A1 (COUNCIL OF THE QUEENSLAND INSTITUTE OF MEDICAL RESEARCH, published 2026)
One block for each binder: values may come before it.

Experiments:
[1] = target: T1, EphA3 expressed on tumour cell lines (LK63, U251, D270) (UniProt P29320 21-983); assay: flow cytometry, subclone supernatant on LK63 cells
T1 construct: whole, on cells; also called EphA3 on LK63 cells; EphA3 on U251 cells
T1 sequence (looked up): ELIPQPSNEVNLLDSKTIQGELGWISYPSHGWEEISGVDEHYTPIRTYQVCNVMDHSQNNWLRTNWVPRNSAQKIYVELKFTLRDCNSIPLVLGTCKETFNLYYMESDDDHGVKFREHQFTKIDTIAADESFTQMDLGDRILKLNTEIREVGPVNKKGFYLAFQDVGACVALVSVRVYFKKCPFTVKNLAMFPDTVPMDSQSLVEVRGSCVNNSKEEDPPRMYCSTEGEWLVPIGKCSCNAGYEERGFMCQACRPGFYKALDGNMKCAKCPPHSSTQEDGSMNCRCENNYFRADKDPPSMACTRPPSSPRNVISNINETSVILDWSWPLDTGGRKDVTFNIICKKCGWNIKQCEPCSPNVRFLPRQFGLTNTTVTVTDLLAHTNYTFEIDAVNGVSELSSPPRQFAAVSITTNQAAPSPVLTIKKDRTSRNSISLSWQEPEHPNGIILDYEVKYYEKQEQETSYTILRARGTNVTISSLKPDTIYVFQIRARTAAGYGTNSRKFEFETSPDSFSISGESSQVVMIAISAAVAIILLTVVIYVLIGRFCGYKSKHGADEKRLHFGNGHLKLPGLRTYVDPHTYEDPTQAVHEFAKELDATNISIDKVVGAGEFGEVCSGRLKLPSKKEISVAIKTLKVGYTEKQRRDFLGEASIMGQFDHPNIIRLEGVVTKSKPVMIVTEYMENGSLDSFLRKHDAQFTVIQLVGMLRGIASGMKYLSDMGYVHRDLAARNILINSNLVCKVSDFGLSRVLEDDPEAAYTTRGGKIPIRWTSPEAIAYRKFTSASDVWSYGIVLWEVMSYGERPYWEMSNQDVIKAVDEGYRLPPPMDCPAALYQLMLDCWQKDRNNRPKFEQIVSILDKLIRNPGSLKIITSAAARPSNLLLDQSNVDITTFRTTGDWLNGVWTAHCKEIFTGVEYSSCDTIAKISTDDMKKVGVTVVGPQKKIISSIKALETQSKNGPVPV

[2] = target: T1, EphA3 expressed on tumour cell lines …; assay: flow cytometry on glioma cell lines D270 and U251

binding result [1]: binds
B1: Clone 2D4-1 anti-EphA3 monoclonal antibody (antibody, V domains shown)
VH: QVHLKESGPGLVAPSQSLSITCTVSGFSLTGYGVNWIRQPPGKNLEWLGMIWGDGSTDYNSVLKSRLSISKDNAKSQVFLEMNSLQTDDTANYYCARDRGISYYYAMDYWGQGTSVTVSS
VL: DIVLTQSPASLAVSLGQRATISCRASKSVSASGYSYLHWYQQKPGQPPKLLIFLAYNLGSGVPARFSGSGAGTDFTLNIHPVEEEDAATYYCQHSREFPLTFGAGTKLELK
notes: Mouse hybridoma monoclonal, screened as subclone supernatant

binding result [2]: binds
B2: Clone 3C3-1 anti-EphA3 monoclonal antibody (antibody, V domains shown)
VH: QVQLQQSGAELARPGASVKMSCKSSGYTFTIYTIHWVKQRPGQGLEWIGYINPSSDYTNYNQKFKDKATLTADKSSTTAYMQLSSLTSEDSAVYYCVREGAYGNYDFAMDYWGQGTSVTVSS
VL: DVLMTQTPLSLPVSLGDQASISCRSSQNIVHNNGNTYLEWYLQKPGQSPKLLIYKVSNRFSGVPDRFSGSGSGTDFTLKISRVEAEDLGVYYCFQTSHVPYTFGGGTKLEIK
notes: as for B1
